Biological target: the molecule itself
Test: single-molecule pull-down

B1: mGluR2-GFP (receptor)
chain: EGPAKKVLTLEGDLVLGGLFPVHQKGGPAEECGPVNEHRGIQRLEAMLFALDRINRDPHLLPGVRLGAHILDSCSKDTHALEQALDFVRASLSRGADGSRHICPDGSYATHSDAPTAVTGVIGGSYSDVSIQVANLLRLFQIPQISYASTSAKLSDKSRYDYFARTVPPDFFQAKAMAEILRFFNWTYVSTVASEGDYGETGIEAFELEARARNICVATSEKVGRAMSRAAFEGVVRALLQKPSARVAVLFTRSEDARELLAATQRLNASFTWVASDGWGALESVVAGSERAAEGAITIELASYPISDFASYFQSLDPWNNSRNPWFREFWEERFHCSFRQRDCAAHSLRAVPFEQESKIMFVVNAVYAMAHALHNMHRALCPNTTHLCDAMRPVNGRRLYKDFVLNVKFDAPFRPADTDDEVRFDRFGDGIGRYNIFTYLRAGSGRYRYQKVGYWAEGLTLDTSFIPWASPSAGPLPASRCSEPCLQNEVKSVQPGEVCCWLCIPCQPYEYRLDEFTCADCGLGYWPNASLTGCFELPQEYIRWGDAWAVGPVTIACLGALATLFVLGVFVRHNATPVVKASGRELCYILLGGVFLCYCMTFVFIAKPSTAVCTLRRLGLGTAFSVCYSALLTKTNRIARIFGGAREGAQRPRFISPASQVAICLALISGQLLIVAAWLVVEAPGTGKETAPERREVVTLRCNHRDASMLGSLAYNVLLIALCTLYAFKTRKCPENFNEAKFIGFTMYTTCIIWLAFLPIFYVTSSDYRVQTTTMCVSVSLSGSVVLGCLFAPKLHIILFQPQKNVVSHRAPTSRFGSAAPRASANLGQGSGSQFVPTVCNGREVVDSTTSSL
stoichiometry N: 2

Reference: article PMC4597782 (Nature, 2015)
